The target of assay [1] is E. coli DNA gyrase A2B2 complex (E. coli) (UniProt P0AES4).
The target in assay [2] is [Alexa488]-QnrB1 (QnrB1-His labelled at the N-terminus with AlexaFluor 488). The assay can be described thus: fluorescence polarisation. (Polarisation of emitted light reports the rotation of a fluorescent probe.)
Assay [3] has the same target. Briefly: fluorescence polarisation. This is another data set of the same source.
The target in assay [4] is E. coli DNA gyrase A2B2 complex (E. coli) (UniProt P0AES4). The source holds these as a separate data set.
Assay [5] shares this target. This is another data set of the same source.
For assay [6], the target named is GyrB 43 kDa domain (GyrB43), N-terminal ATPase/transducer domain of E. coli GyrB (E. coli).
The target of assay [7] is E. coli DNA gyrase subunit B, full-length, untagged (E. coli) (UniProt P0AES6).

One may read the Kd as a measure of binding affinity in units of concentration.

Like-named read-outs stand apart in the source and are kept apart here. A value given as a limit tells only on which side of the number the result lay.

In assay [1], “AlbG with a thrombin-cleavable N-terminal hexahistidine tag (natural protein)” registered a rescue of gyrase supercoiling from 3.3 μM albicidin by AlbG, EC50 of 1.2 µM.

For the substance “E. coli DNA gyrase A2B2 complex (from UniProt P0AES4 1-875; P0AES6 1-804)”, the Kd came out at 1.78 µM in assay [2] and 80 nM in assay [3].

Regarding “E. coli DNA gyrase subunit B, full-length, untagged (from UniProt P0AES6 1-804) (natural protein)”, the KdHi (high-affinity site of the two-site fit), with ADPNP in assay [2] was 0.16 µM. This substance had a KdHi (high-affinity site of the two-site fit) in assay [3] of 0.06 µM.

As to “GyrB 43 kDa domain (GyrB43), N-terminal ATPase/transducer domain of E. coli GyrB (domain or fragment)”, the Kd in assay [2] worked out at 18 µM; in assay [3], 1670 nM.

In assay [4], “QnrB1 with a C-terminal 6xHis tag (wild type, unlabelled) (natural protein)” registered an inhibition of gyrase supercoiling by QnrB1 without CFX, IC50 of 11 µM. The substance further displayed an ATP hydrolysis rate of 50 nM gyrase A2B2 in the absence of DNA, with 5 μM QnrB1 in assay [5] of 3 fold. Also, in assay [6], the ATPase rate of 4 μM GyrB43 with 5 μM QnrB1 against no QnrB1 was determined as 17 fold. In addition, in assay [7], the ATPase activity of the full-length GyrB subunit with QnrB1 (not shown) was below 2 fold.

Source of the values: doi:10.1101/2020.09.24.310243.
